Test results from patent publication US20220017635A1 (Kyowa Kirin, published 2022).

T1: huTfR with mouse protease-like domain (human/mouse chimera)
T1 construct: His tag added; also called chimeric protein of human TfR extracellular domain with mouse protease-like domain
T1 chain: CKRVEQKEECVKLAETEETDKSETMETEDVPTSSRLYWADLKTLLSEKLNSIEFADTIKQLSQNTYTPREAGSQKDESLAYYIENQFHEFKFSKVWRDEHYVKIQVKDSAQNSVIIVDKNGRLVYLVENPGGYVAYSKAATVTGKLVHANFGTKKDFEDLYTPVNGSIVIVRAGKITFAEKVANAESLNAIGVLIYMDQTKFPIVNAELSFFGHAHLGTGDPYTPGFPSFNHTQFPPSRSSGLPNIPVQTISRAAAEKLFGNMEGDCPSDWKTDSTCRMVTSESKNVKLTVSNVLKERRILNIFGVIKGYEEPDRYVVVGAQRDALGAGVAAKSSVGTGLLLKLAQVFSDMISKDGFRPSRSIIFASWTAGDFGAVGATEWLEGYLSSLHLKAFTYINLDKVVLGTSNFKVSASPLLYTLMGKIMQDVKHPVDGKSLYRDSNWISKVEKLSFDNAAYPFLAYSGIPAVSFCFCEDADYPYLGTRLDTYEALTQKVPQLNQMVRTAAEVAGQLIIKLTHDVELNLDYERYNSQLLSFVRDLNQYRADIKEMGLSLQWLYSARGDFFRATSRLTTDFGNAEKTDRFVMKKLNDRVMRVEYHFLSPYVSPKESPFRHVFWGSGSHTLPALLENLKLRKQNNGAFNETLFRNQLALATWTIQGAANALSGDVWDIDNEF

T2: huTfR with mouse apical domain (human/mouse chimera, UniProt P02786 89-760)
T2 construct: His tag added; also called chimeric protein of human TfR extracellular domain with mouse apical domain
T2 chain: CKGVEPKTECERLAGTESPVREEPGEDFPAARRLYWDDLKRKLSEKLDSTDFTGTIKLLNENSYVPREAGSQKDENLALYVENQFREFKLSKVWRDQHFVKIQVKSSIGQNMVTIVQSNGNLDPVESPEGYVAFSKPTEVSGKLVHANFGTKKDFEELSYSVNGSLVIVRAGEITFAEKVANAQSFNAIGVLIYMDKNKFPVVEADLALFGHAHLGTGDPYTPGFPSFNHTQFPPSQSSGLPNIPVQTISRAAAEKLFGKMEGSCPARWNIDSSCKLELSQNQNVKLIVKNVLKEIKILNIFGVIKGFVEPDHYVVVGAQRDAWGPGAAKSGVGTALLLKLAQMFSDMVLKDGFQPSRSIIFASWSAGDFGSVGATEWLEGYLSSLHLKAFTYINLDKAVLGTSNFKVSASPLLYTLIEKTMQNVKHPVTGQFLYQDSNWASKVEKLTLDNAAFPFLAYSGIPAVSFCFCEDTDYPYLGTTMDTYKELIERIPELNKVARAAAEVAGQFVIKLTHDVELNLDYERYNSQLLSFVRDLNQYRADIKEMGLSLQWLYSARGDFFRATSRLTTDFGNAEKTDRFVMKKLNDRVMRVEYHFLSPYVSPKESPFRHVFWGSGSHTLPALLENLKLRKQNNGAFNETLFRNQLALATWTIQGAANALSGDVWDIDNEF

T3: chimeric TfR A02 (human/mouse chimera, UniProt P02786 89-760)
T3 construct: also called D352S-S355A-D356R-K358N
T3 chain: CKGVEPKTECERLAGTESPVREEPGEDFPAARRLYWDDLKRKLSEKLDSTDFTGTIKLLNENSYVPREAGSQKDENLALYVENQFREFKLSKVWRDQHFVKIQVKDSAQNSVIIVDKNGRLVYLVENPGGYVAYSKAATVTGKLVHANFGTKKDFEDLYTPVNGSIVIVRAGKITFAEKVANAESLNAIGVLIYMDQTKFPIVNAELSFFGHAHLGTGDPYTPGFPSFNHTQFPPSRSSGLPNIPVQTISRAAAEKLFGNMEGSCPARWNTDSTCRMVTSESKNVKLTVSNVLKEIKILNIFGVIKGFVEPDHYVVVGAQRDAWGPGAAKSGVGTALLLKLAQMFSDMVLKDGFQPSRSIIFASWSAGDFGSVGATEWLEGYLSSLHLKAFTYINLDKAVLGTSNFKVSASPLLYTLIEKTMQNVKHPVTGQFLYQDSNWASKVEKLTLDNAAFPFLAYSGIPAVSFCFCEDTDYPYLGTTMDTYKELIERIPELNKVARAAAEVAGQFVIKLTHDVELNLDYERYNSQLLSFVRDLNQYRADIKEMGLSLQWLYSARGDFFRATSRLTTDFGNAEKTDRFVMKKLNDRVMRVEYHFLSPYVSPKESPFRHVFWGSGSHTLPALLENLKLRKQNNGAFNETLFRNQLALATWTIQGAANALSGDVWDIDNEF

T4: monkey TfR on CHO cells (monkey)
T4 construct: also called monkey TfR/CHO cells
T4 chain: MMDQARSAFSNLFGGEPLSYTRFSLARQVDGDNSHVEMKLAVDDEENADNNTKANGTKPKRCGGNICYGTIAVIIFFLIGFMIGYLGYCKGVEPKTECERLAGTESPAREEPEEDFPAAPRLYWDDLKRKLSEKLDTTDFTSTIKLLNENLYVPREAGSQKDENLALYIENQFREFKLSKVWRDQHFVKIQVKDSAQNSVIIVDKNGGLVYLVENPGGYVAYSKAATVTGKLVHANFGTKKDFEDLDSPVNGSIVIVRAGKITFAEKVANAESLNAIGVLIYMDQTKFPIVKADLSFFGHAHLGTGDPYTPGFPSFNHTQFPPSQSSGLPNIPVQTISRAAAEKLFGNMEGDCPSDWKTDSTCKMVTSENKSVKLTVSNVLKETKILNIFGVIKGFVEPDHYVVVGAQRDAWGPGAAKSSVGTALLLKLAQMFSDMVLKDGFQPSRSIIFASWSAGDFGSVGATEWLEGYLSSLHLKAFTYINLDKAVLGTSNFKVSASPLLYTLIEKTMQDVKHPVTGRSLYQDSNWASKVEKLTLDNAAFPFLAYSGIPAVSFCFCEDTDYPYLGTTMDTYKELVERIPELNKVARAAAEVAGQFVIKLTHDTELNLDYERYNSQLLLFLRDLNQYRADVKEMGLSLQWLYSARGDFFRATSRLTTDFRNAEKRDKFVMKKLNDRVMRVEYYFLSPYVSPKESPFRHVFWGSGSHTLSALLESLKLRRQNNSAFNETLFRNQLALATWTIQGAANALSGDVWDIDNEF


Columns and labels:
mouse TfR on CHO cells = target: T5, mouse TfR on CHO cells (mouse, UniProt Q62351 1-763); test: flow cytometry on mouse TfR/CHO cells
T5 construct: also called mouse TfR/CHO
Experimental: Subsequently, an epitope analysis for various types of TfR antibodies was carried out.

[1] = target: T1, huTfR with mouse protease-like domain; test: ELISA on immobilized chimeric TfR
Experimental: (§1) ELISA was carried out by the following method. To a 96-well immunoplate (NUNC, Inc.) on which an antigen protein was immobilized, 1% (w/v) BSA-PBS(−) pH 7.0 without KCl (hereinafter referred to as blocking solution, Nacalai Tesque, Inc.) was added to perform blocking at room temperature, and thereafter, the anti-TfR antibody diluted with the same solution was added thereto and a reaction was allowed to proceed at room temperature for 1 hour. Thereafter, washing was performed with 0.05% (w/v)-tPBS (1×) without KCl (pH 7.2) (hereinafter referred to as washing solution, Nacalai Tesque, Inc.), Anti-Human IgG (Fc) Goat IgG Fab″-HRP (IBL, Inc.) diluted with the blocking solution was added thereto, and a reaction was allowed to proceed at room temperature for 1 hour. Thereafter, washing was performed with the washing solution, and 1-Step (registered trademark) Ultra TMB-ELISA Substrate Solution (Thermo, Inc.) was added thereto, and a reaction was allowed to proceed at room temperature. The coloring reaction was stopped by adding a 5 N HCl solution, and an absorbance at a wavelength of 450 nm (reference wavelength: 570 nm) was measured using a plate reader (EPOCH 2: BioTek Instruments, Inc.).
(§2) Further, a value obtained by subtracting the absorbance at the reference wavelength of 570 nm from the absorbance at a wavelength of 450 nm was regarded as the binding activity to any of various types of antigen proteins, and a case where a value obtained by dividing the binding activity to any of various types of chimeric TfR by the binding activity to His-huTfR was 0.5 or more was denoted by ++, a case where the value was 0.2 or more and less than 0.5 was denoted by +, and a case where the value was less than 0.2 was denoted by −.

[2] = target: T2, huTfR with mouse apical domain; test: ELISA on immobilized chimeric TfR; grade = binding relative to His-huTfR (++ 0.5 or more, + 0.2 to less than 0.5)
Experimental: as §1, §2

chimeric TfR A02 [3] = target: T3, chimeric TfR A02; test: as above
Experimental: as §1, §2

chimeric TfR A03 = target: T6, chimeric TfR A03 (human/mouse chimera, UniProt P02786 89-760); test: as above
T6 construct: also called D245E-K261E
Experimental: as §1, §2

chimeric TfR A04 = target: T7, chimeric TfR A04 (human/mouse chimera, UniProt P02786 89-760); test: as above
T7 construct: also called D245E-K261E-D356R
Experimental: as §1, §2

chimeric TfR A05 [4] = target: T8, chimeric TfR A05 (human/mouse chimera, UniProt P02786 89-760); test: as above
T8 construct: also called P249S-L274F
Experimental: as §1, §2

chimeric TfR A07 [5] = target: T9, chimeric TfR A07 (human/mouse chimera, UniProt P02786 89-760); test: as above
T9 construct: also called M365L-V366E-E369Q
Experimental: as §1, §2

chimeric TfR A14 [6] = target: T10, chimeric TfR A14 (human/mouse chimera, UniProt P02786 89-760); test: as above
T10 construct: also called D204Q-K205S-E369Q
Experimental: as §1, §2

[7] = target: T2, huTfR with mouse apical domain; test: ELISA on immobilized chimeric TfR
Experimental: as §1, §2

chimeric TfR A05 [8] = target: T8, chimeric TfR A05; test: ELISA on immobilized chimeric TfR
Experimental: as §1, §2

[9] = target: T1, huTfR with mouse protease-like domain; test: ELISA on immobilized chimeric TfR; grade = binding relative to His-huTfR (++ 0.5 or more, + 0.2 to less than 0.5)
Experimental: as §1, §2

chimeric TfR A02 [10] = target: T3, chimeric TfR A02; test: ELISA on immobilized chimeric TfR
Experimental: as §1, §2

chimeric TfR A07 [11] = target: T9, chimeric TfR A07; test: ELISA on immobilized chimeric TfR
Experimental: as §1, §2

chimeric TfR A14 [12] = target: T10, chimeric TfR A14; test: ELISA on immobilized chimeric TfR
Experimental: as §1, §2

monkey TfR on CHO cells = target: T4, monkey TfR on CHO cells; test: flow cytometry of monoclonal phage (scFv) on monkey TfR/CHO cells
Experimental: After the reaction was allowed to proceed under 4° C. for 30 minutes, each well was washed 3 times with PBS-T.

Row | binding result (mouse TfR on CHO cells) | ratio of ELISA binding activity (A450-A570) to chimeric TfR over that to His-huTfR [1] [ratio] | ratio of ELISA binding activity (A450-A570) to chimeric TfR over that to His-huTfR [2] [ratio] | ratio of ELISA binding activity (A450-A570) to chimeric TfR over that to His-huTfR (chimeric TfR A02 [3]) [ratio] | ratio of ELISA binding activity (A450-A570) to chimeric TfR over that to His-huTfR (chimeric TfR A03) [ratio] | ratio of ELISA binding activity (A450-A570) to chimeric TfR over that to His-huTfR (chimeric TfR A04) [ratio] | ratio of ELISA binding activity (A450-A570) to chimeric TfR over that to His-huTfR (chimeric TfR A05 [4]) [ratio] | ratio of ELISA binding activity (A450-A570) to chimeric TfR over that to His-huTfR (chimeric TfR A07 [5]) [ratio] | ratio of ELISA binding activity (A450-A570) to chimeric TfR over that to His-huTfR (chimeric TfR A14 [6]) [ratio] | ratio of ELISA binding activity (A450-A570) to chimeric TfR over that to His-huTfR [7] [ratio] | ratio of ELISA binding activity (A450-A570) to chimeric TfR over that to His-huTfR (chimeric TfR A05 [8]) [ratio] | ratio of ELISA binding activity (A450-A570) to chimeric TfR over that to His-huTfR [9] [ratio] | ratio of ELISA binding activity (A450-A570) to chimeric TfR over that to His-huTfR (chimeric TfR A02 [10]) [ratio] | ratio of ELISA binding activity (A450-A570) to chimeric TfR over that to His-huTfR (chimeric TfR A07 [11]) [ratio] | ratio of ELISA binding activity (A450-A570) to chimeric TfR over that to His-huTfR (chimeric TfR A14 [12]) [ratio] | binding result (monkey TfR on CHO cells) | Binder
1 | no binding | < 0.2 | ≥ 0.5 | ≥ 0.5 | ≥ 0.5 | ≥ 0.5 | ≥ 0.5 | ≥ 0.5 | ≥ 0.5 |  |  |  |  |  |  |  | 2230 (antibody, V domains shown, From a hybridoma; light chain other than A27; also called clone 2230; anti-TfR antibody 2230) VH: QVQLQESGPGLVKPSETLSLTCTVSGGSISSYYWSWIRQPPGKGLEWIGYIYYSGSTNYNPSLKSRVTISLDTSKNQFSLRLSSVTTADTALYYCTREAGYYDSSGYYGFDYWGQGTLVTVSS VL: DIQMTQSPSSLSASVGDRVTITCRASQGISSWLAWYQQKPEKAPKSLIYAASSLQSGVPSRFSGSGSGTDFTLTISSLQPEDFATYFCQQYYNYPYTFGQGTKLEIK
2 |  |  |  | ≥ 0.5 | ≥ 0.5 | 0.2 to 0.5 |  | ≥ 0.5 | ≥ 0.5 | < 0.2 | < 0.2 | ≥ 0.5 |  |  |  |  | T14 (antibody, V domains shown, IgG4PE or IgG4PE R409K constant region; also called anti-TfR antibody T14) VH: EVQLVESGGGLVQPGGSLRLSCVVSGGTFSNFNMNWVRQAPGKGLEWVSYISGSSSTIYYADSVKGRFTISRDNAKNSLYLQMNSLRDEDTAVYYCVSSSWYYWGQGTLVTVSS VL: not shown
3 | no binding |  |  |  | ≥ 0.5 | 0.2 to 0.5 | ≥ 0.5 |  |  | < 0.2 |  | ≥ 0.5 | < 0.2 | < 0.2 | < 0.2 | binds | cyno186 (antibody, V domains shown, also called anti-TfR antibody cyno186) VH: QVQLVESGGEFVQPGGSLRLSCAASGFPFKGYAMNWVRQAPGKGLEWVSRISNGGSYIDYADSVKGRFTISRDNSKNTLYLQIDSLRTEDTAVYYCAKAKDAYRWNNAIDEWGQGTLVTVSS VL: not shown
